Reference: the DeepSol protein solubility set

Experiment: soluble on expression in E. coli; label from the status in PepcDB or PDB records

Row | Sequence | soluble on expression in E. coli
1 | MGHHHHHHSHMLAWHVLMGNQVIWKSRDVDLVQSAFEVLRTMLPVGCVRIIPYSSQYEEAYRCNFLGLSPHVQIPPHVLSSEFAVIVEVHAAARSTLHPVGCEDDQSLSKYEFVVTSGSPVAADRVGPTILNKIEAALTNQNLSVDVVDQCLVCLKEEWMNKVKVLFKFTKVDSRPKEDTQKLLSILGASEEDNVKLLKFWMTGLSKTYKSHLMSTVRSPTASESRN | not soluble
2 | MGTSVTPNIFDFLIKIDPFDKLPEPVVESIANSVKVKYLVRGETIGFSALCDQRYLYIIRTGAIEQRTPNGELRARLGQDDQFGFTFLDPLENAEDGYQAEAIEDSLLYLIPHSELKLVSEEHPEFADYFAAQANVRLSSAVKYVCRKEEKGLFFRTVGEIASENIAIVDVNDSIRSVAQTMCGKQRSSCAVVMKEGEIIGLVTDRDMTKSVVAQDMDTNQPIADVMTPNPVLIEDDAKVIQAISLMLQYNIRCLPVVHGKQVKGLLTTTHLVHNHRTQSLFLIEKIKYASSLNALAALKEERQTIFQALVESGVSAEIQGRVMSMIMDAFTRRIIQLNEELLGPPPCDYAWLVAGSHARNEVHMLSDQDSAIVLSDDATEEHKLYFTHLAMRVCNGLAACGYPLCDGKYMAASPKWCQPIRRWKEYYQKWVASPEYNKLLSISVFLEVRAIHGNREFVDQIQQHLHDCIQKSPSFIPALVRDAIDTQPPLGIFNNLVLEKGGENSNTLNIKKYALNLIIDLARIFSLAAGGSLTGTEERFRYAAQHGTLSKDSVENIIGAYRFITQVRFRHQLNAILAGTTPDNHIAPDDFSSFERKHLKDAFKIISELQDVAKLKFVKGA | not soluble
3 | MSLTQRIDFQTDPSRYRHWRVAYDGEIANLYMDVDEQGGLFPGYELKLNSYDLGVDIELADIVQRMRFEHPEVKVVVMQSGKDRVFCAGANIRMLGGASHAHKVNFCKFTNETRNTYEAAEADSGQKYIAAVKGACAGGGYELALACNYIMLTNDSSSSVALPEVPLLAVLPGTGGLTRVTDKRKVRRDLADVFCSVEEGVRGQRAVDWRLVDEIAPNSKFDEVVQERAREFASASVKPSGLTGIALTPLDRRFAEDGSVTYSTVEVVVEREAGRATLTISGPTDAAPDTVDALQAQGAEAWILRAARELDDAILHLRLNERRIGTLVIQTQGDGAAVAAHEALLLENRDHWLANEILQHWKRVLKRVDMTSRSLVAIVEHGSCFAGPLAELLWAVDRSYMMLEEGHHHHHH | not soluble
4 | GSHMTIQKVHGREVLDSRGNPTVEVEVTTEKGVFRSAVPSGASTGVYEACELRDGDKKRYVGKGCLQAVKNVNEVIGPALIGRDELKQEELDTLMLRLDGTPNKGKLGANAILGCSMAISKAAAAAKGVPLYRYLASLAGTKELRLPVPCFNVINGGKHAGNALPFQEFMIAPVKATSFSEALRMGSEVYHSLKGIIKKKYGQDAVNVGDEGGFAPPIKDINEPLPILMEAIEEAGHRGKFAICMDCAASETYDEKKQQYNLTFKSPEPTWVTAEQLRETYCKWAHDYPIVSIEDPYDQDDFAGFAGITEALKGKTQIVGDDLTVTNTERIKMAIEKKACNSLLLKINQIGTISEAIASSKLCMENGWSVMVSHRSGETEDTYIADLVVALGSGQIKTGAPCRGERTAKLNQLLRIEEELGAHAKFGFPGWS | soluble
5 | MSLENLQTNFSLVQGSTKKLNGMGDDGSPPAKKMITDIHVNGKTINKVPTVKKEHLDDYGEAPVETDGEHVKRTCTSVPETLHLNPSLKHTLAQFHLSSQSSLGGPAAFSARHSQESMSPTVFLPLPSPQVLPGPLLIPSDSSTELTQTVLEGESISCFQVGGEKRLCLPQVLNSVLREFTLQQINTVCDELYIYCSRCTSDQLHILKVLGILPFNAPSCGLITLTDAQRLCNALLRPRTFPQNGSVLPAKSSLAQLKETGSAFEVEHECLGKCQGLFAPQFYVQPDAPCIQCLECCGMFAPQTFVMHSHRSPDKRTCHWGFESAKWHCYLHVNQKYLGTPEEKKLKIILEEMKEKFSMREGHHHHHH | not soluble
6 | MDRVDVVADLNDPLSCFPDDSVIEIYAHHVLEHVRNFIQLMQEVHRVCMRDSTVTIVVPHYSNQLAYSDPTHVRFFGLYTMCYFVERVFQPFKRKVPDFYIKEKFLLCEVVYDFEPKNTFLGRLFTRRVQLFINANPKRQEFYERYLCRFFPVASVRYVLSPVKLEHHHHHH | soluble
7 | MTNPLYTGHPFGTTVTEETLRAIFLPLTQWEDKYRQLILLGKQLPALPDECKAQAKEIAGCENRVWLGFTRSDNGTMHFFGDSEGRIVRGLLAVLLTAVEGKNAAELQARSPLALFDELGLRAQLSASRSQGLNALSEAIVAATHKG | not soluble
8 | MGSDKIHHHHHHKNTDLVAEDSICFPIDEHTYYASKSIFQFEENGHEYLSFLDAEYSQKINIYDIKNQKLIKTILLQKEGPNGMNVLSGCHPLNLNHFIITSWNGTFSLVNDKGEIEKKFDFWEKGVNFQEFDHISFSSYSYKPAIIKDSILYFSQSFLKHPRKKSDWNKIPMFAFANLNTGKTGWSELRYPLIFNKDEDFKNVKLYDPEICYTYTGKDVVISLGQYDSIMVSSDFKHKISYNAKSRYLAHAYPHLQDGQIDLFKNIQIQGKLPHYSHLMYDKYRKVFYRFALMPDDNIKPFSNNPHQSFSIIILNKDYEIIGETKFPGNTYTHHLCFVGKKGLYISENNENNPQFDENKLVFRCFTLQDRKK | not soluble
9 | GPGSMSASNSCTVEEVRKEYAKLLDPQEPLDSRMRELYRLKEDCLKTVAGVTVILEAIDTTDSVLLQHELAYNAGQSGREEAVPELERILRTTSYDVVTRHEAAEALGAIGSPLALQVLETHSAPTTEPEASIRETCELALARIAMKETKGDAAVAPPSGCEFVSVDPSPAFSALYSSTDEPVPLTVEELEAVLLDTSGRTRLFRRYMAMFTLRNLATEAAVAALCRGLREDTISALFRHEVAFVLGQLERPSSQPALIAALKDEEEAPMVRHEAAEALGAIADPATLPVLESYATHHEPIVRDSCVVALEMHKYWAHFNSLAHQQQEA | soluble
10 | MGSDKIHHHHHHMIRKHFKGYNFVCIPETGVTFRWGDSIAEDPYMAPWPELADISISNYCTNGCEYCYRASNEEGIFMTVADYKFILGQLTSKEYGSIFQVALGGGEPLLHPDFNEILHVTREEYGIIPNYTTCGKYFNQKNMEASKKYCGAVAVSWDPYRDNLSLEELRELGVQLKEEKIRTNIHYVISERTLIEAIKLLKGKYDEYLKDFNSVIFLTYKAAGRADKSDVIKSQKYLREFLDMVDAPLTKLKLGFDACFVPVLMKATGVDTDLVDSCECGFFSVYVSESMEVMPCSFCNNSNFTYNLKDLCFKDIWQKHFSAYRSYVNDNCKTGCAECDERSGCRGKCSFYNDIYLCNLV | not soluble
11 | MGSDKIHHHHHHMNLLKIIDDLQLEKIDQEEFLKPALRRGLFKKASDFSLKAALTSLPFALFAMPRIVQASTQANTQSVTDTLNYALTLEYLEEAFYVQGLAKSGLIDSADMTIFNQIKKHESAHVVFLKNVLGSAANPSPAFDFGTAFDSYANFLATAQALEDTGVRAYKGQAGNLITNKVALTAALQIHSVEARHASEVRRLRMLNGWIGVGEAGATYGAGEDANFPAESNLTQGGVDLSILASADVTMTNIAEAFDEPLDKNTVFGIAQGFIVS | not soluble
12 | HLPKPTLWAEPGSVITQGSPVTLRCQGGQETQEYRLYREKKTAPWITRIPQELVKKGQFPIPSITWEHAGRYRCYYGSDTAGRSESSDPLELVVTGAYIKPTLSAQPSPVVNSGGNVTLQCDSQVAFDGFILCKEGEDEHPQCLNSQPHARGSSRAIFSVGPVSPSRRWWYRCYAYDSNSPYEWSLPSDLLELLVLG | soluble
13 | MAHHHHHHMARRPSRCYRFCKNKPYPKSRFCRGVPDPKIRNFDIGRRRATVDEFPVCIHVVSRELEQIASEALEAARIQANKYMVKRANKDVFHMRTRAHPFHVLRINKMLSCAGADRLQTGMRGAFGKPNGVCARVRIGQILLSMRTKEAYVPQAFEALRRAKMKFPGRQIIVMSKYWGFTNILRTEYEALRDAGKLEQRGTHCKLIAPKGKITMRNVMA | not soluble
14 | AHHHHHHGSGMKYLIKLKYIKPAQLAVNREQKLAEFYPIFEDGTLGRVEAKARVFLPEYSDFAKGLGFEVKKRRMITEDDYAYLRAMVYGVVMGVLRNPGDWRRLEERVLEMEPIELRYWASKFRNAYWKYKNMRKLMFLARRFMEVEMI | not soluble
15 | MGSSHHHHHHGGTGENLYFQGGSGGTCPSISQSEVGIVETCGRFSYTADPGIHCLWCGSVLVRRVTLRLQEYELKVESKTKDNVFVTLSLVIQYQVSPDKLAEVYYACDSSLQCMRDYVLNSIRAKIPLYKLEALYVERGTISQQLKDEVDAIIGTYGIEIVSALISDIDPGAEITKAMNEVQKFQRLRVASVDAAETEKLKRVRAAEARCEARRLSGEGLAEQRKAIVAGLMHSIEDVQSEVRDLTSNDATNMLLMNQYYDTLQAIAANSSSSVIMLESNGGLEKVAAQLRQGVTHMMR | not soluble
16 | TVAEPKAINATQPLLLDAVRGKEVERPPVWLMRQAGRYMKSYQLLCEKYPLFRDRSENVDLVVEISLQPWKVFRPDGVILFSDILTPLSGMNIPFDIIKGKGPVIFDPLRTAADVEKVREFIPEKSVPYVGEALTILRKEVNNQAAVLGFVGAPFTLASYVVEGGSSKNFTKIKRLAFAEPKVLHALLQKFATSMAKYIRYQADSGAQAVQIFDSWATELSPVDFEEFSLPYLKQIVDSVKLTHPNLPLILYASGSGGLLERLPLTGVDVVSLDWTVDMADGRRRLGPNVAIQGNVDPGVLFGSKEFITNRINDTVKKAGKGKHILNLGHGIKVGTPEENFAHFFEIAKGLRY | soluble
17 | MILFVGFLLMEIVMPQISRTALVPYSAEQMYQLVNDVQSYPQFLPGCTGSRILESTPGQMTAAVDVSKAGISKTFTTRNQLTSNQSILMNLVDGPFKKLIGGWKFTPLSQEACRIEFHLDFEFTNKLIELAFGRVFKELAANMVQAFTVRAKEVYSARLEHHHHHH | not soluble
18 | MSALKWTNIGATSGAKSCQRWLFYAYDRIRRTVVPHVFGERTLATLERLLSLLSAFEVVVWMTDGWPLYESRLKGKLHVISKRYTQRIERHNLNLRQHLARLGRKLLSFSKSVELHDKVIGHYLNIKHYQLEHHHHHH | not soluble
19 | MHGTCLSGLYPVPFTHNSHDYPHFNIYISFGGPKYCITALNTYVTPLLHRILTTQFIYTYANITKKSPLKSPKHKNILFFNHNT | soluble
20 | LPIISIDTKQQVIPLVTKEGGKYVKARDNINVDIELRDSPSRSHHLSEKPRIRTKGLISYRGNTSRYFDKKSLKVKFVTNKLKEKKHRLAGMPKESEWVLHGPFLDRTLLRNYLSYNIAGEIMSYAPNVRYCELFVNGEYQGVYLAVENIEQGEQRVPIEKSDKKLHKTPYIVAWDREHKAKQKLDNYVHYTHQSGISALDVKYPGKQRLTSKQLEFINKDINHIEKVLYSYDFSQYPKYIDRESFANYFVINEFFRNVDAGKFSTYLYKDLRDRAKLVVWDFNNAFDNQIEGRVDEADFTLTDAPWFNMLIKDKAFIDLVVHRYKELRKGVLATEYLSNYIDETRHFLGPAIDRNYKKWGYVFDLKNTDPRNYLIPTERNVTSYHKSVEQLKDFIKKRGRWMDRNIETLYQYSAPSKNTNTLLE | not soluble
21 | MIMQKRLLNRNSSVVKSRNCLARHQHESSISKLHVSLRLHRCLRPIVRFDFLHNAGSKVCSQNSCPSPQLHVGTMALFHTVFILWPHFCGILWTVHEKLYNYLLSIEVY | soluble
